# Biological target: H6MA-CA, His-tagged matrix-capsid (MAp17-CAp24) domains of the HIV-1 Gag precursor (HIV-1 (pNL4-3))
# Assay: ITC
binder,measurement,value
Ank^GAG1D4 (designed binder) DLGKKLLEAARAGQDDEVRLLLEHGADVNARDSIGSTPLHLAAYYGHLEIVRLLLEHGADVNARDSTGTTPLHYAARLGHLEIVRLLLEHGADVNARDAMGWTPLHLAAKKGHLEIVRLLLKHGADVNANDHFGKTAFDISIDNGNEDLAEILQSFNHHHHHH,Kd,1090 nM
